Results on 30 sequences are retold here after the nanobody polyreactivity screen of Harvey et al. (2022).

The data set can be described thus: yeast display, Sf9 membrane polyspecificity reagent, FACS + sequencing; frameworks hold sequencing errors. In a few lines: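 Nanobodies from a synthetic yeast display library (Saccharomyces cerevisiae BJ5465), induced 36–48 hours with galactose, were stained 1 hour at 4 °C with 10% biotinylated, detergent-solubilized Sf9 membrane reagent, enriched on streptavidin microbeads, then FACS-sorted. Anti-HA (expression) and streptavidin (reagent binding) fluorescence set low and high (top ~1%) gates. Polyreactivity labels come from the gate of origin. Genes were colony-PCR amplified, MiSeq 2 × 250 sequenced and filtered by CDR length.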
Consider “QVQLVESGGGLVQAGGSLRLSCAASGRTFWVYAMGWYRQAPGKERELVAAIRRGGITNYADSVKGRFTISRDNAKNTVYLQMNSLKPEDTAVYYCAALGLWFLQFDYWGQGTQVTVSS”, for which the “polyreactivity (PSR sort gate)” value is reported as “low polyreactivity”.

Turning to “QVQLVESGGGLVQAGGSLRLSCAASGRTFWWNAMGWYRQAPGKERELVASISSGGSTNYADSVKGRFTISRDNAKKTVYLQMNSLKPEDTAVYYCARGYRWRGTVSRWSRYYQAHDYWGQGTQVTVSS”, the “polyreactivity (PSR sort gate)” value is “low polyreactivity”.

“QVQLVESGGGLVQAGGSLRLSCAASGRTFWYNALGWYRQAPGKERELVAAISWSGGTTYYADSVKGRFTISRDNAKNTVYLQMNSLKPEDTAVYYCNAKYRGLAKYDYWGQGTQVTVSS”: the “polyreactivity (PSR sort gate)” value was “high polyreactivity”.

In the case of “QVQLVESGGGLVQAGGSLRLSCAASGRTFWYNAMGWYRQAPGKERELVAAISSTGGRTYYADSVKGRFTISRDNAKNTVYLQMNSLKPEDTAVYYCAARQLSSHYDYWGQGTQVTVSS”, the “polyreactivity (PSR sort gate)” value is “low polyreactivity”.

In the case of “QVQLVESGGGLVQAGGSLRLSCAASGRTFWYNTMGWYRQAPGKERELVAAISTGGSTNYADSVKGRFTISRDNAKNTVYLQMNSLIPEDTAVYYCAALIYYWSGRPRFDQARDYDYWGQGTQVTVSS”, the “polyreactivity (PSR sort gate)” value is reported as “low polyreactivity”.

For the sequence “QVQLVESGGGLVQAGGSLRLSCAASGRTFWYYAMGWYRPAPGKERELVASISLSGSRTNYADSVKGRFTIARDNAKNTVYLQINRLKPEDTAVYYCAADNFRQFGEYDYLGQGTQVTVSS”, the “polyreactivity (PSR sort gate)” value is “low polyreactivity”.

Regarding “QVQLVESGGGLVQAGGSLRLSCAASGRTFWYYAMGWYRQAPGKEREFVAAISWSGGSTYYADSVKGRFTISRDNAKNTVYFQMNSLKPEDTAVYYCNAGNYRDKSYYWGQGTQVTVSS”, the “polyreactivity (PSR sort gate)” value was “low polyreactivity”.

Regarding “QVQLVESGGGLVQAGGSLRLSCAASGRTFWYYAMGWYRQAPGKERELVAAISRNGGSTYYEDSVKGRFTISRDNAKNTVYLQMNSLKPEDTAVYYCAADGWYTRKYDYWGQGTQVTVSS”, the “polyreactivity (PSR sort gate)” value is listed as “high polyreactivity”.

Take “QVQLVESGGGLVQAGGSLRLSCAASGRTFWYYAMGWYRQAPGKERELVAAISTTGSSTYYADSVKGRFTISRDNAKNTVYLQMNSLKPEDTAVYYCAADSGAQYKYLWGYDYWGQGTQVTVSS”: the “polyreactivity (PSR sort gate)” value was “low polyreactivity”.

In the case of “QVQLVESGGGLVQAGGSLRLSCAASGRTFWYYAMGWYRQAPGKERELVAAITYRGTRTYADSVKGRFTISRDNAKNTVYLQMNSQKPEDTPVYYCAKDVGYRYSRTMDYWGQGTQVTVSS”, the “polyreactivity (PSR sort gate)” value is “high polyreactivity”.

Take “QVQLVESGGGLVQAGGSLRLSCAASGRTFWYYAMGWYRQAPGKERELVAGITYGDGSTYYADSVKGRFTISRDNAKNTEYLQMNSLKPEDTAVYYCAVDLRSYWFRYGFDYWGQGTQVTVSS”: the “polyreactivity (PSR sort gate)” value is “low polyreactivity”.

With “QVQLVESGGGLVQAGGSLRLSCAASGRTFWYYDMGWYRQAPGKERELVATINNVGSTHYADSVKGRFTISRDNAKNTVYLQMNSLKPEDTAVYYCARASYGKMDYWGQGTQVTVSS”, the “polyreactivity (PSR sort gate)” value is on record as “high polyreactivity”.

Turning to “QVQLVESGGGLVQAGGSLRLSCAASGRTFWYYTMGWYIQAPGKERELVASITYRGGSTYYADSVKGRFTISRDNAKNTVYLQMNSLKPEDTAVYYCNARYKRYSYDYWGQGTQVTVSS”, the “polyreactivity (PSR sort gate)” value is “high polyreactivity”.

In the case of “QVQLVESGGGLVQAGGSLRLSCAASGRTFWYYTMGWYRQAPGKERELVAAISSGGRTNYADSVKGRFTISRDNAKNTVYLQMNSLKPEDTAVYYCATSRYYKYVERDYWGQGTQVTVSS”, the “polyreactivity (PSR sort gate)” value is on record as “high polyreactivity”.

For “QVQLVESGGGLVQAGGSLRLSCAASGRTFWYYTMGWYRQAPGKERELVASITYRGGSTYYADSVKGRFTISRDNAKNTVYLQMNSLKPEDTAVYFCNARYKRYSYDYWGHGTQVTVSS”, the “polyreactivity (PSR sort gate)” value was “high polyreactivity”.

“QVQLVESGGGLVQAGGSLRLSCAASGRTFYANAMGWYRQAPGKERELVAAISTGGDGTYYADSVKGRFTISRDNAKKTVYLQMNSLKPEDTAVYYCAVRHRASGILYDYWGQGTQVTVSS”: the “polyreactivity (PSR sort gate)” value was “low polyreactivity”.

In the case of “QVQLVESGGGLVQAGGSLRLSCAASGRTFYANAMGWYRQAPGKERELVAAISWGGGSTYYADSVKGRFTISRDNAKNTVYLQMNSLKPEDTAVYYCNADLGRATFYQRVFIERGGYWGQGTQVTVSS”, the “polyreactivity (PSR sort gate)” value is recorded as “low polyreactivity”.

For the sequence “QVQLVESGGGLVQAGGSLRLSCAASGRTFYANAMGWYRQAPGKERELVAAITYRGGSTNYADSVKGRFTISRDNAKNTVYLQMNSLKPEDTAVYYCAKVYNPNYLWYLTYGYDYWGQGTQVTVSS”, the “polyreactivity (PSR sort gate)” value was “low polyreactivity”.

Consider “QVQLVESGGGLVQAGGSLRLSCAASGRTFYANVMGWYRQAPGKERELVAAITSGGSSYYADSVKGRFTISRDTAKNTVYLQMNSLKPDDTAVYYCAAGSNLNGVWFDYWGQGTQVTVSS”, for which the “polyreactivity (PSR sort gate)” value is recorded as “low polyreactivity”.

As for “QVQLVESGGGLVQAGGSLRLSCAASGRTFYDYAMGWYRQAPGKERELVAAITSGGSTNYADSVKGRFTISRDNAKNTVYLQMNSLKPEDTAGYYCAADDFYVWGFDMNYWGQGTQVTVSS”, the “polyreactivity (PSR sort gate)” value is given as “high polyreactivity”.

Regarding “QVQLVESGGGLVQAGGSLRLSCAASGRTFYDYDMGWYRKAPGKERELVAAISGGDSTYYADSVKGRFTISRDNAKNTVFLQMNSLKPEDTAVYYCAVTPRGLPYGAYLLYYWGQGTQVTVSS”, the “polyreactivity (PSR sort gate)” value is “low polyreactivity”.

“QVQLVESGGGLVQAGGSLRLSCAASGRTFYEYAKGWYRQAPGKERELVAGITSGGSTNYADSVKGRFTISRDNEKNTVYLQMNSLKPEDTAVYYCAASYWGYEYDYWGQGTQVTVSS”: the “polyreactivity (PSR sort gate)” value was “low polyreactivity”.

Turning to “QVQLVESGGGLVQAGGSLRLSCAASGRTFYEYAMGCYIPAPGKERELVAAITSGGTTYYADSVKGRFTISRDTAKNTVYLQMNSVKPEDTAVYYCAADRYYYYWGQGTQVTVSS”, the “polyreactivity (PSR sort gate)” value is listed as “high polyreactivity”.

As for “QVQLVESGGGLVQAGGSLRLSCAASGRTFYFNAMGWYRQAPGKERELVAAISGGGRTYYADSVKGRFTISRDNAKNTVYLQMNSLKPEDTAVYYCNVRRWYTYPLEKSNYWGQGTQVTVSS”, the “polyreactivity (PSR sort gate)” value is reported as “high polyreactivity”.

With “QVQLVESGGGLVQAGGSLRLSCAASGRTFYFYAMGWYRQAPGKERELVAAITSRVGRTYYADSVKGRFTISRDNAKNTVYLQMNSLKPEDTAVYYCAAEGVYRMGYWGQGTQVTVSS”, the “polyreactivity (PSR sort gate)” value is given as “high polyreactivity”.

For “QVQLVESGGGLVQAGGSLRLSCAASGRTFYFYAMGWYRQAPGKERELVASITSSGGNTYYADSVKGRFTISRDNAKNTVYLQMNSLKPEDTAVYYCAARWFPWLQWKRYDYWGQGTQVTVSS”, the “polyreactivity (PSR sort gate)” value is listed as “low polyreactivity”.

As to “QVQLVESGGGLVQAGGSLRLSCAASGRTFYFYVMGWYRQAPGKERELVARISWSGGSTYYADSVKGRFTISRDNAKNTVYLQMNSLKPEDTAVYYCARQYKYPSSGEYDSWGQGTQVTVSS”, the “polyreactivity (PSR sort gate)” value was “low polyreactivity”.

For “QVQLVESGGGLVQAGGSLRLSCAASGRTFYGNAMGWYRQAPGKERELVAAITFRTSSTYYADSVKGRFTISRDYAKNTVYLQMNSLKPDDTAVFYCAALWIYSGWRYDYWGQGTQVTVSS”, the “polyreactivity (PSR sort gate)” value is reported as “high polyreactivity”.

In the case of “QVQLVESGGGLVQAGGSLRLSCAASGRTFYGNAMGWYRQAPGKERELVAGITRGGSTYYADSVKGRFTISRDNAKITVYLQMNSLKPEDTAVYYCAARAYYARFLMGYWGQVTQVTVSS”, the “polyreactivity (PSR sort gate)” value is “high polyreactivity”.

Take “QVQLVESGGGLVQAGGSLRLSCAASGRTFYGYALGWYRQAPGKERELVAAISDDASTYYADSVKGRFTISRDNAKNTVYLQMNSLKPEDTAVYYCAAEPEWPYGRFDYWGQGTQVTVSS”: the “polyreactivity (PSR sort gate)” value is given as “high polyreactivity”.
